The values below are quoted from earlier work in publication PMC6136702.

The data set addresses EGFR (Homo sapiens) (UniProt P00533).

As to EGF (from UniProt P01133), the dissociation constant (Kd) (commonly a measure of binding affinity in units of concentration) is 0.2 nM.
